Reference: PMC7955032, “The amyloid structure of mouse RIPK3 (receptor interacting protein kinase 3) in cell necroptosis” (Nature Communications, 2021)
Numbering of substitutions follows the chain as printed. Names may count otherwise.

Legend:
[1] = target: the molecule itself; experiment: solid-state NMR; MAS SSNMR of isotope-labelled fibrils, 700 MHz, 303 K, 15 kHz; structure calculated with Xplor-NIH for 5 copies of residues 441-460; intermolecular contacts from [2-13C]-glycerol labelled sample and from a 1:1 mix of 15N- and 13C-labelled protein
[2] = target: the molecule itself; experiment: thioflavin T fluorescence of fibril growth; 2 mM protein in 6 M GudHCl diluted to 20 µM in 10 mM PB buffer pH 7.4, 50 µM ThT, room temperature, about 4 h

B1: mouse RIPK3 409-486 Q449D (domain or fragment, UniProt Q9QZL0 409-486, looked up)
chain: GPHPQRNQGDGRHGTPWYPWTPPNPMTGPPALVFNNCSEVDIGNYNSLVAPPRTTASSSAKYDQAQFGRGRGWQPFHK
notes: RIPK3, mouse, residues 409-486, same construction as the SSNMR sample, with Q449D; Same construct as m1 with one substitution; source: E. coli Transetta (DE3), purified (Ni-NTA, reverse phase HPLC)
B1: binds [1].

B2: mouse RIPK3 409-486 L456D (domain or fragment, UniProt Q9QZL0 409-486, looked up)
chain: B1 chain with D41Q, L48D
notes: RIPK3, mouse, residues 409-486, same construction as the SSNMR sample, with L456D; Same construct as m1 with one substitution; source: E. coli Transetta (DE3), purified (Ni-NTA, reverse phase HPLC)
B2: binds [1].

B3: mouse RIPK3 409-486 F442D (domain or fragment, UniProt Q9QZL0 409-486, looked up)
chain: B1 chain with F34D, D41Q
notes: RIPK3, mouse, residues 409-486, same construction as the SSNMR sample, with F442D; Same construct as m1 with one substitution; source: E. coli Transetta (DE3), purified (Ni-NTA, reverse phase HPLC)
B3: binds [2].
